In this data set the target is T1, PPC peptide, soluble recombinant 18-mer ADGACGYGRFSPPCGAAG
T1 chain: ADGACGYGRFSPPCGAAG

From patent US20070207967 come the findings set out here.

B1: aminophenylmercuric acetate (APMA)-activated MMP-2 (protein)
chain: YNFFPRKPKWDKNQITYRIIGYTPDLDPETVDDAFARAFQVWSDVTPLRFSRIHDGEADIMINFGRWEHGDGYPFDGKDGLLAHAFAPGTGVGGDSHFDDDELWTLGEGQVVRVKYGNADGEYCKFPFLFNGKEYNSCTDTGRSDGFLWCSTTYNFEKDGKYGFCPHEALFTMGGNAEGQPCKFPFRFQGTSYDSCTTEGRTDGYRWCGTTEDYDRDKKYGFCPETAMSTVGGNSEGAPCVFPFTFLGNKYESCTSAGRSDGKMWCATTANYDDDRKWGFCPDQGYSLFLVAAHEFGHAMGLEHSQDPGALMAPIYTYTKNFRLSQDDIKGIQELYGASPDIDLGTGPTPTLGPVTPEICKQDIVFDGIAQIRGEIFFFKDRFIWRTVTPRDKPMGPLLVATFWPELPEKIDAVYEAPQEEKAVFFAGNEYWIYSASTLERGYPKPLTSLGLPPDVQRVDAAFNWSKNKKTYIFAGDKFWRYNEVKKKMDPGFPKLIADAWNAIPDNLDAVVDLQGGGHSYFFKGAYYLKLENQSLKSVKFGSIKSDWLGC
On to B1, for which the “gelatin degradation assay (enzymatic activity, biotinylated gelatin substrate)” value was “PPC inhibited both MMP-9 and MMP-2 activity”.
